Assay results: patent US7179646B2, “Gene expression using T cell factor responsive element” (Innovata PLC, priority 2000, dated 2007)

What was measured:
SW480 cells = experiment: Transient transfection luciferase reporter assay in SW480; assay type: cell-based, human
Procedure: (§1) HepG2, SW480 and HeLa were seeded the day before transfection at densities of 2.5×10^5, 1.5×10^5 and 6.0×10^4 cells per 6-well respectively. The next day, a mixture of CL22 peptide ([…] (SEQ ID NO:15) (described in International Patent Application WO 98/35984)) and plasmid DNA (2:1 ratio, μg:μg) was prepared in a final volume of 100 μl in HBS (10 mM Hepes pH 7.4, 150 mM NaCl; Sigma) and incubated at RT for 30–45 min before addition of 0.9 ml of “RAC” solution (0.1% human albumin (BPL, UK), 120 μM chloroquine (Sigma) in RPMI medium (Sigma). The transfection solution was then added to cells after washing them once with PBS and incubated with the cells for 4–5 hours before replacement with 2 ml of fresh complete medium. After two days, cells were washed once with PBS and then incubated for 10 min at RT in 200 μl lysis buffer (10 mM sodium phosphate pH 7.8, 8 mM MgCl2, 1 mM EDTA pH 8.0, 1% Triton X-100 and 15% glycerol). After centrifugation, an aliquot of the supernatant was assayed for luciferase activity with luciferase assay buffer (0.1 mM luciferin, 0.44 mM ATP in lysis buffer) using a luminometer (Lumat LB 9501, Berthold, Germany). Activity was normalised using the protein content of each sample (BCA, Pierce).

HeLa cells = experiment: Transient transfection luciferase reporter assay in HeLa; assay type: cell-based, human
Procedure: as §1

[1] = tested on: freshly excised colorectal cancer tissue and attached liver tissue; experiment: Ex vivo transduction of freshly excised colorectal tumour samples, X-gal staining; parameters: species or system human
Procedure: Freshly excised tumour tissue was extensively washed (at least 10 minutes duration) under aseptic conditions with 20 ml of Earl's MEM containing 10% FCS, 150 μg/ml penicillin, 250 μg/ml streptomycin, 10 μg/ml tetracycline, 100 μg/ml amikacin, 150 µg/ml chloramphenicol and 100 μg/ml gentamycin and stored at 4° C. overnight in medium containing 10% FCS. After removal of fat and grossly and suspected necrotic tissue, 2–3 mm^3 samples were prepared and placed individually into wells of a 96-well plate. Samples (in quadruplicate) were incubated in 150 μl of serum-free medium containing, 1.0×10^10 virus particles or in medium alone for 4 h in a CO2 incubator. The medium was then replaced with EMEM containing 10% FCS and the samples incubated for a further 44 h to allow gene expression to proceed. β-galactosidase expression was visualised after fixation of the tumour samples in 2% paraformaldehyde/PBS for 2 h at 4° C. and washing with PBS by overnight incubation in X-gal staining solution at 37° C.

293 and PerC6 cells = experiment: LacZ expression in adenovirus helper cell lines; assay type: cell-based, human
Procedure: (§2) Expression of β-galactosidase was measured for quantitative graphical presentation by means of the Galacto-Light system (Tropix Inc, Applied Biosystems, Foster City, Calif., U.S.A.)

HepG2 cells = experiment: Transient transfection luciferase reporter assay in HepG2; assay type: cell-based, human
Procedure: as §1

[2] = tested on: primary human hepatocytes, dermal fibroblasts and endothelial cells; experiment: Beta-galactosidase expression in infected cultured primary human cells; assay type: cell-based; conditions: 48 h after infection
Procedure: Primary human dermal fibroblasts were isolated from punch biopsy samples from healthy volunteers and maintained as above. HUVEC cells were obtained from Promocell (Heidelberg, Germany) and maintained in Endothelial Growth Medium plus Supplement Mix (Promocell). Primary hepatocytes were maintained in Williams medium with added antibiotics, glutamine, insulin and hydrocortisone.
After washing cells with PBS, cells were fixed in 0.05% glutaraldehyde in PBS for 10 min at RT. Following further washing in PBS, cells were incubated cells the following solution and incubated at 37° C. X-gal solution: 400 μl 500 mM K4Fe(CN)6, 400 μl 500 mM K3Fe(CN)6, 100 μl 2 mM MgCl2, 250 μl 40 mg/ml X-Gal in DMF and 8.85 ml PBS.
as §2

B1: TcfC-E1BTATA: Luciferase reporter with TcfC arrangement of 5 Tcf sites and E1BTATA box (nucleic acid)
antisense: TACCAACAGTACCGGAATGCCAAGCTAGCTTTTTAGCTTCCTTAGCTCCTGAAAATCTCGCCAAGCTGATGAATTCGAGCTGGCGCATTATATACCCTCTGATAAAGGTGCATTTAGAGATCAAAGGTATGATCAAAGGACTTGATCAAAGGTGAGATCAAAGGTATTGATCAAAGGACTAGAGCTTACTTAGATCGCAGATCTCGAGCCCGGGCTAGCACGCGTAAGAGCTCGGTACCTATCG
level of reporter gene expression among Tcf-E1BTATA arrangements (SW480 cells; SW480, E1BTATA combinations): highest level of reporter gene expression

B2: 5merTcf-SV40: Artificial promoter of 5 active Tcf sites upstream of the basal SV40 promoter; renamed CTP1 (nucleic acid)
antisense: TTGAGATGCAGATCGCAGATCTGATAAAGGTGCATTTAGAGATCAAAGGTAGGACTCTTGATCAAAGGACTGAATTCCTTGATCAAAGGTGCATTTAGAGATCAAAGGTAGGACTCTTTGATCAAAGGGACTAGTAAGCTTGCTAGCACGCGTAAGAGCTCGGTACC
luciferase reporter activity in HeLa (HeLa cells; Example 6): shows a background activity in HeLa cells
luciferase activity compared to SV40 promoter alone (HeLa cells; beta-catenin not deregulated): not more active than the SV40 promoter alone
colorectal metastases permissive for high-level expression ([1]; 5 metastases examined): all 5 colorectal metastases examined were permissive
primaries weakly or non-permissive for promoter activity ([1]; of 10 primaries): 3
LacZ expression compared to CMV promoter (293 and PerC6 cells; 293 and PerC6, MOI 100, 30 h post-infection): significantly lower than that driven by the CMV promoter
fold more active in PerC6 than in 293 cells (293 and PerC6 cells; PerC6 vs 293): approximately 3 fold
activity relative to CMV enhancer/promoter (SW480 cells; SW480): about 80%
luciferase reporter activity in SW480 (SW480 cells; SW480, Example 6): highly active in SW480, here comparable to CMV
induction ratio (SW480 cells; SW480, relative to SV40 promoter set as 1): 44.2
inducibility in SW480 compared to HeLa (SW480 cells; SW480 vs HeLa): 30–60 fold
activity relative to CMV enhancer/promoter (HepG2 cells): even more active than CMV
induction ratio (HepG2 cells; relative to SV40 promoter set as 1): 18
beta-galactosidase expression [2]: very low levels of beta-galactosidase expression
